In US9579358B2, “Compositions for binding to amyloid proteins” (LANCASTER UNIVERSITY BUSINESS ENTERPRISES LIMITED, priority 2011, dated 2017):
Non-standard residues stand in square brackets, D forms with d. Residues, ends and D or L forms follow the SMILES beside them. No end group written: not given here.

Columns and labels:
APP/PS1 transgenic mice = assay: Brain pathology after 21 days of treatment; assay type: in vivo; settings: 100 nMol/kg i.p. once daily
Excerpt: APPswe/PS1ΔE9 mice with a C57Bl/6 background (APP/PS1 mice) were obtained from the Jackson lab (http://research.iax.org/repository/alzheimers.html). To determine if Flu-RI-OR2-TAT crosses the blood brain barrier (Example 4), 2 male 17-months-old APP/PS1 animals and 2 16-months-old C57BL6 animals were used. To look at the effects of RI-OR2-TAT on mouse brain pathology (Example 5), 8 female 10-months-old APP/PS1 mice were used. The animals were housed in single cages in a temperature controlled holding room (21.5° C.±1) with 12:12 h light and dark cycle. Food and water was available ad libitum.
For Example 5, 4 animals were injected intraperitonially (i.p.) with 0.9% NaCl (vehicle control) and the other 4 with RI-OR2-TAT (100 nMol/Kg in 0.9% NaCl) once daily, for 21 days. On the 22nd day, the animals were perfused transcardially with ice-cold PBS and 4% paraformaldehyde and then the brains were removed and post-fixed in 4% ice cold paraformaldehyde.
All brains in paraformaldehyde were transferred to 30% sucrose overnight and then snap frozen with Envirofreez™ (Sigma, UK) and, using a Leica cryostat, 40 microns thick coronal sections were cut at anatomical regions of −2 to −3 bregma. Sections were preserved in cryoprotect with the first section taken at random and then every 5th section afterwards.
For Example 5, to stain for activated microglia, an inflammation response marker, sections were pretreated with 0.05 M sodium citrate buffer, pH 9, and incubated at 90° C. for 30 mins and stained with anti Iba-1 (1:2000 dilution, Wako 016-20001, Germany). For the oxidative stress marker, DNA denaturation was carried out with 2N HCl and the sections were stained for 8-oxo guanine (1:200 dilution, MAB3560, Millipore). Young immature neurons were detected by immunostaining for doublecortin (1:200 dilution, sc-66911, Santa Cruz Biotechnology). Total plaque load was quantified by immunostaining for β-amyloid (1:200 dilution, Invitrogen, 71-5800).
All sections were visualized using an Axio Scope 1 fluorescence microscope (Zeiss, Germany). For quantification, two images per section were taken from the cortex area with a 10× objective for 8-oxo guanine and β-amyloid staining, and a 100× objective for Iba1 staining, with a minimum of 5 sections visualized per animal. Image analysis was performed using multi threshold plug in Image J (NIH, USA).
Human oligomerised Aβ was measured using a kit purchased from Invitrogen, according to the manufacturer's instructions. Briefly, the right hemispheres from the brains of transgenic APP/PS1 mice treated with RI-OR2-TAT, or controls, were pooled separately and homogenized. Quantification of total protein was determined using the Bradford protein assay and was measured on a Nanophotometer (Implen, Germany). The homogenates were centrifuged at 100,000 g at 4° C. for 1 h. The supernatant was then diluted 1:10 before carrying out the sandwich ELISA, which measures soluble Aβ oligomer levels, but not amyloid monomers, as detailed in the manufacturer's protocol. The final AR oligomer values were determined following normalization of total protein levels.

SHSY-5Y cells [1] = assay: MTT cell viability assay, protection from pre-aggregated Aβ1-42; assay type: cell-based; settings: for Absorption units (560 nm): control with Abeta 2.467, no Abeta 3.608
Experimental: (§1) SHSY 5Y cells were grown and maintained in DMEM (Dulbecco's Modified Eagle Medium) supplemented with FBS under standard mammalian cell culture conditions. During treatment cells were kept in Optimem plus or minus peptide liposomes in 96 well plates at 20000 cells per well for 24 hours, again under standard culture conditions. For cell protection assays 5 μM of pre-aggregated Aβ1-42 was added at the same time as peptide liposomes. Cell viability was assessed for four wells for each treatment using a Promega CellTiter assay kit.

SHSY-5Y cells [2] = assay: MTT cell viability assay, toxicity of PINPs alone; assay type: cell-based; settings: 10 μM PINPs, 24 hours
Experimental: as §1

Aβ42 = molecular target: T1, Aβ42 (Homo sapiens, UniProt P05067); assay: Sandwich immunoassay (6E10) for Aβ oligomers; assay type: biochemical; settings: Aβ1-42 12.5 μM
T1 construct: Recombinant Aβ42, Ultrapure, was purchased from rPeptide, Bogart, Ga., USA; purchased rPeptide, Bogart, Ga., USA

[3] = Nanoparticle Tracking Analysis (NTA); assay type: physicochemical
Excerpt: The particles were investigated by Nanoparticle Tracking Analysis (NTA) which is a method for visualizing and analyzing particles in liquids that can be used to determine the size of individual particles by tracking their rate of Brownian motion.

T1 sequence (P05067 672-713 limits assumed): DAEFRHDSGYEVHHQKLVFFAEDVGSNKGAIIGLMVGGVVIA

## CC(=O)N[C@H](CCCNC(=N)N)C(=O)NCC(=O)N[C@H](Cc1ccccc1)C(=O)N[C@H](Cc1ccccc1)C(=O)N[C@@H](C(=O)N[C@H](CC(C)C)C(=O)N[C@H](CCCCN)C(=O)NCC(=O)N[C@H](CCCNC(=N)N)C(=O)N[C@H](CCCNC(=N)N)C(=O)N[C@H](CCCNC(=N)N)C(=O)N[C@H](CCCNC(=N)N)C(=O)N[C@H](CCC(N)=O)C(=O)N[C@H](CCCNC(=N)N)C(=O)N[C@H](CCCNC(=N)N)C(=O)N[C@H](CCCCN)C(=O)N[C@H](CCCCN)C(=O)N[C@H](CCCNC(=N)N)C(=O)NCC(=O)N[C@H](Cc1ccc(O)cc1)C(N)=O)C(C)C [RI-OR2-TAT, Ac-rGffvlkGrrrrqrrkkrGy-NH2] (Ac-[dR]G[dF][dF][dV][dL][dK]G[dR][dR][dR][dR][dQ][dR][dR][dK][dK][dR]G[dY]-NH2)
APP/PS1 transgenic mice
  increase of mean number of young doublecortin-expressing neurons in the dentate region: 210%
  reduction of cortical level of 8-oxo-guanine immunostaining: 25%
APP/PS1 transgenic mice; Iba1 immunostaining
  reduction of number of activated microglia in the cortex: 44%
APP/PS1 transgenic mice; sandwich ELISA
  reduction of soluble Aβ oligomer levels in the brain: 25%
APP/PS1 transgenic mice; versus saline, β-amyloid immunostaining
  reduction of amyloid plaque load in the cortex: 32%

## PINPs: RI-OR2-TAT covalently attached to nanoliposomes (cholesterol:sphingomyelin [1:1] with 2.5% maleimide) via an additional cysteine (Ac-[dR]G[dF][dF][dV][dL][dK]G[dR][dR][dR][dR][dQ][dR][dR][dK][dK][dR]G[dY][dC]; not fully specified (residue 21); also: C-terminal D-Cys coupled via its thiol to maleimide lipid of nanoliposome)
SHSY-5Y cells [1]; PINPs 0.01 μM plus 5 μM pre-aggregated Aβ1-42
  Absorption units (560 nm): 3.370 Absorption units
SHSY-5Y cells [1]; PINPs 0.1 μM plus 5 μM pre-aggregated Aβ1-42
  Absorption units (560 nm): 3.478 Absorption units
SHSY-5Y cells [1]; PINPs 1 μM plus 5 μM pre-aggregated Aβ1-42
  Absorption units (560 nm): 3.252 Absorption units
SHSY-5Y cells [1]; PINPs 10 μM plus 5 μM pre-aggregated Aβ1-42
  Absorption units (560 nm): 3.538 Absorption units
SHSY-5Y cells [1]; PINPs at 10, 1, 0.1, 0.01 μM
  cell viability in the presence of pre-aggregated Aβ1-42: cell viability remained near that of untreated cells
SHSY-5Y cells [2]
  toxicity to cells: not toxic to cells
SHSY-5Y cells [2]; untreated cells 3.608, lysed cells 0.654
  Absorbance units (560 nm): 3.610 Absorbance units
Aβ42; 1:100 molar ratio of PINPS (total lipids):Aβ
  inhibition of oligomer formation: still substantial
Aβ42; PINPs 1:1, 0 hours
  immunoassay signal (time-resolved fluorescence, europium): 9494 relative fluorescence units
Aβ42; PINPs 1:1, 2 hours
  immunoassay signal (time-resolved fluorescence, europium): 17524 relative fluorescence units
Aβ42; PINPs 1:1, 4 hours
  immunoassay signal (time-resolved fluorescence, europium): 62958 relative fluorescence units
Aβ42; PINPs 1:1, 8 hours
  immunoassay signal (time-resolved fluorescence, europium): 116308 relative fluorescence units
Aβ42; PINPs 1:1, 24 hours
  immunoassay signal (time-resolved fluorescence, europium): 178685 relative fluorescence units
Aβ42; PINPs 1:1, 48 hours
  immunoassay signal (time-resolved fluorescence, europium): 122098 relative fluorescence units
Aβ42; PINPs 1:10, 0 hours
  immunoassay signal (time-resolved fluorescence, europium): 9666 relative fluorescence units
Aβ42; PINPs 1:10, 2 hours
  immunoassay signal (time-resolved fluorescence, europium): 33960 relative fluorescence units
Aβ42; PINPs 1:10, 4 hours
  immunoassay signal (time-resolved fluorescence, europium): 63899 relative fluorescence units
Aβ42; PINPs 1:10, 8 hours
  immunoassay signal (time-resolved fluorescence, europium): 77883 relative fluorescence units
Aβ42; PINPs 1:10, 24 hours
  immunoassay signal (time-resolved fluorescence, europium): 95760 relative fluorescence units
Aβ42; PINPs 1:10, 48 hours
  immunoassay signal (time-resolved fluorescence, europium): 198806 relative fluorescence units
Aβ42; PINPs 1:50, 0 hours
  immunoassay signal (time-resolved fluorescence, europium): 7833 relative fluorescence units
Aβ42; PINPs 1:50, 2 hours
  immunoassay signal (time-resolved fluorescence, europium): 124190 relative fluorescence units
Aβ42; PINPs 1:50, 4 hours
  immunoassay signal (time-resolved fluorescence, europium): 111776 relative fluorescence units
Aβ42; PINPs 1:50, 8 hours
  immunoassay signal (time-resolved fluorescence, europium): 177380 relative fluorescence units
Aβ42; PINPs 1:50, 24 hours
  immunoassay signal (time-resolved fluorescence, europium): 173198 relative fluorescence units
Aβ42; PINPs 1:50, 48 hours
  immunoassay signal (time-resolved fluorescence, europium): 99592 relative fluorescence units
Aβ42; PINPs 1:100, 0 hours
  immunoassay signal (time-resolved fluorescence, europium): 3766 relative fluorescence units
Aβ42; PINPs 1:100, 2 hours
  immunoassay signal (time-resolved fluorescence, europium): 78306 relative fluorescence units
Aβ42; PINPs 1:100, 4 hours
  immunoassay signal (time-resolved fluorescence, europium): 82278 relative fluorescence units
Aβ42; PINPs 1:100, 8 hours
  immunoassay signal (time-resolved fluorescence, europium): 141932 relative fluorescence units
Aβ42; PINPs 1:100, 24 hours
  immunoassay signal (time-resolved fluorescence, europium): 154889 relative fluorescence units
Aβ42; PINPs 1:100, 48 hours
  immunoassay signal (time-resolved fluorescence, europium): 131004 relative fluorescence units
[3]
  average diameter: 130 nm
